Publication PMC4255732, “Structural and functional consequences of removing the N-terminal domain from the magnesium chelatase ChlH subunit of Thermosynechococcus elongatus” (Biochemical Journal, 2014)

Experiments:
ΔN159ChlH = target: T1, ΔN159ChlH (Thermosynechococcus vestitus, UniProt Q8DM52); experiment: tryptophan fluorescence quenching; assay type: binding
T1 construct: gene chlH; N-terminal head domain and linker (159 residues) deleted, starts at Met160; His6-tagged (pET9aHis6); E. coli; about 130 kDa
T1 sequence (Q8DM52 entry or part of it, stated change not applied): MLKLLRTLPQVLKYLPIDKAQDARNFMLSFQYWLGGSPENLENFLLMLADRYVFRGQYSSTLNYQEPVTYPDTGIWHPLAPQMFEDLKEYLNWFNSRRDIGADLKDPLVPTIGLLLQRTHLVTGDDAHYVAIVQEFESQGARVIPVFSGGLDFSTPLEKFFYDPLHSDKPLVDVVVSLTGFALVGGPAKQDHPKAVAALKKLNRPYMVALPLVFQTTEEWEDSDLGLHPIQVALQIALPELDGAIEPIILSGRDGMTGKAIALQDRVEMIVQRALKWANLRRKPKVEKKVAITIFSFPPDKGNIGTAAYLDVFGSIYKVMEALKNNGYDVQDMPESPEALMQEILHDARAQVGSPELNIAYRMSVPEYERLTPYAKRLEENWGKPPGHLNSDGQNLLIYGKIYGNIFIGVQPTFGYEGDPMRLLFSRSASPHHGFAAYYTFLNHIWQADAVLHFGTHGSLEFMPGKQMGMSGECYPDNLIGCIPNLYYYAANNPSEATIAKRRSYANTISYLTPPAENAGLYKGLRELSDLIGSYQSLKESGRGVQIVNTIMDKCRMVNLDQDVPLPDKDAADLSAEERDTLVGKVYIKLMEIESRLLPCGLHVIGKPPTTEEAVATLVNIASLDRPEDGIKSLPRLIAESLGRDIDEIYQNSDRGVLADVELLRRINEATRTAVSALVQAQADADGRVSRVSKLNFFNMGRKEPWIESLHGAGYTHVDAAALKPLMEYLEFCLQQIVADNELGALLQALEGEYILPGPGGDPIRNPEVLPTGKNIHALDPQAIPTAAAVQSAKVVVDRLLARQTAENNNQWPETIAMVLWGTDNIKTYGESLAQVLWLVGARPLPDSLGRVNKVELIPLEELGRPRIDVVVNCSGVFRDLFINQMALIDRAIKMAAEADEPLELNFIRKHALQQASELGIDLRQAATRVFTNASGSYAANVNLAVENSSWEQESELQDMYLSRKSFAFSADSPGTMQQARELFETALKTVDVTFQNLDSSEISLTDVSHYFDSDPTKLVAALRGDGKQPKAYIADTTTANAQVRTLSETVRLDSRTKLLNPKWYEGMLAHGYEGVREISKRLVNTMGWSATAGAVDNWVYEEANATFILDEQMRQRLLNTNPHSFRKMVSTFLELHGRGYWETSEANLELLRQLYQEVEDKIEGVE

MgCH (WT ChlH–I–D) = target: T2, MgCH (WT ChlH–I–D) (Thermosynechococcus vestitus, UniProt Q8DM52); experiment: continuous fluorescence assay of MgDIX formation at […] nm; assay type: biochemical; conditions: 8 μM DIX, 5 mM ATP, 15 mM MgCl2, 50 mM Mops/KOH pH 7.7, 45 °C, without Gun4
T2 construct: with Magnesium-chelatase subunit ChlI; Magnesium-chelatase subunit ChlD
T2 sequence (Q8DM52 1-1326): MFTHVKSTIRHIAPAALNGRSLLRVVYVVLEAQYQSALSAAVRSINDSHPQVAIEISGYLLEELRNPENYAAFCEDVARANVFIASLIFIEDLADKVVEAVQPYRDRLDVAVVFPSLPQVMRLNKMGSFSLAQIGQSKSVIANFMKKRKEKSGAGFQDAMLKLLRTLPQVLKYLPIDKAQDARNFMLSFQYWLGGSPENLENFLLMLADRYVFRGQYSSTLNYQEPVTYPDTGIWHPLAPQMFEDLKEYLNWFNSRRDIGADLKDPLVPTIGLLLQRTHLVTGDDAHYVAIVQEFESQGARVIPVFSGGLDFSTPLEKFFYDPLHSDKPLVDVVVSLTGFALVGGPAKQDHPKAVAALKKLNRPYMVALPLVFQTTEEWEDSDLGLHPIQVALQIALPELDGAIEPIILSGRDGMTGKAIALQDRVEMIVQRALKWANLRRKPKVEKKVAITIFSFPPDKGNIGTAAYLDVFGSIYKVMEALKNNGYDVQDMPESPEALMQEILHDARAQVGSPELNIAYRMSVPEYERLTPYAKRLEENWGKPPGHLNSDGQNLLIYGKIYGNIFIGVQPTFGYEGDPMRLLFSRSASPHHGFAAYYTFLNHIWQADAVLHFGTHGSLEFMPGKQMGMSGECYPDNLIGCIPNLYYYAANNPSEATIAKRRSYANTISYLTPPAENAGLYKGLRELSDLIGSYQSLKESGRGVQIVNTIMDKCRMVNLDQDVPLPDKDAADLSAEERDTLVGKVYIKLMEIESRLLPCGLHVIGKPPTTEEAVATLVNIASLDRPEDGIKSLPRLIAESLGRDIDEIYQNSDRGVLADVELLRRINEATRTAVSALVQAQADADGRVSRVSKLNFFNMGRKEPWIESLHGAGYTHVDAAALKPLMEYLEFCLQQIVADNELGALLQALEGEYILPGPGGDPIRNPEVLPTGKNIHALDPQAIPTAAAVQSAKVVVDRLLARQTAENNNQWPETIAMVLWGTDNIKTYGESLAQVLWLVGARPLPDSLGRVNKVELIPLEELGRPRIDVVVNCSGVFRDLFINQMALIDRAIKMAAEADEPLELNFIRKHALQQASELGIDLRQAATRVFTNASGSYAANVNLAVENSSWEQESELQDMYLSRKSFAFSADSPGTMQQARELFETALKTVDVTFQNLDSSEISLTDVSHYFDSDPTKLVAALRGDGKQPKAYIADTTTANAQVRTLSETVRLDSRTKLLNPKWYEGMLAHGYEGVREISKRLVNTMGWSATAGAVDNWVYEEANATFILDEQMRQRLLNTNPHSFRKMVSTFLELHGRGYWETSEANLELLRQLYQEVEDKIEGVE
T2 sequence (Q8DIS0 13-367 partner): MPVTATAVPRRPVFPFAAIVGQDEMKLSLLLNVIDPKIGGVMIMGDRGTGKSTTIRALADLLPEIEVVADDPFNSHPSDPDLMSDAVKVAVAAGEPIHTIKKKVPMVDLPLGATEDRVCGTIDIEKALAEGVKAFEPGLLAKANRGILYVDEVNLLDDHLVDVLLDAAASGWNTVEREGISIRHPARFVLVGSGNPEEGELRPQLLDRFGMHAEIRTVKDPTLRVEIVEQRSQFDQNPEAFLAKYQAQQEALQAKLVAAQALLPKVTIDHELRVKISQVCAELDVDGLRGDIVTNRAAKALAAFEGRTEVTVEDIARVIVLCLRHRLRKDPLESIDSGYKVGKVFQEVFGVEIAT
T2 sequence (Q8DJ18 1-668 partner): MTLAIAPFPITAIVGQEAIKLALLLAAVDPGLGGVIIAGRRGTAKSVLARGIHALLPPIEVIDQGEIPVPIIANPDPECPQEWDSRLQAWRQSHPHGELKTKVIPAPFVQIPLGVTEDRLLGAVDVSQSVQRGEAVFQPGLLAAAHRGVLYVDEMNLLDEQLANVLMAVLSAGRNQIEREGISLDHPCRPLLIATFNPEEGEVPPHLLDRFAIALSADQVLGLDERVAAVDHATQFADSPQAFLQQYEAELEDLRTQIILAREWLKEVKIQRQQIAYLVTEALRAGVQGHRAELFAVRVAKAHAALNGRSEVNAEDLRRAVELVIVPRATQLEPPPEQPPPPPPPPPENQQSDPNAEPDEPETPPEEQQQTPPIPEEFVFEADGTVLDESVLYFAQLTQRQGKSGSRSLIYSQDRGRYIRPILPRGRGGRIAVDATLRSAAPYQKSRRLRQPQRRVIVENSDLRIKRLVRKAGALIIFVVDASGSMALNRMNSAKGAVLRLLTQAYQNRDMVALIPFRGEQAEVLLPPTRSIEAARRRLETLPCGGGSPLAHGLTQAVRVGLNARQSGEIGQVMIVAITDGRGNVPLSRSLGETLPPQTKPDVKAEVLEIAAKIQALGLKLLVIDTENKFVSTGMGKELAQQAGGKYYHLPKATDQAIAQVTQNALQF

[1] = target: magnesium chelatase ChlH subunit of Thermosynechococcus elongatus, wild type (Thermosynechococcus elongatus)
[2] = target: ΔN159ChlH, N-terminally truncated ChlH subunit of Thermosynechococcus elongatus (Thermosynechococcus elongatus)
[3] = target: magnesium chelatase ChlH subunit of Thermosynechococcus elongatus, wild type (Thermosynechococcus elongatus); experiment: FRET or BRET; 0.1 μM ChlH (WT or ΔN159) labelled with Atto 488, titrated with Gun4 labelled with Alexa Fluor 532; quenching of emission at 524 nm; 50 mM Tricine/NaOH, 0.3 M glycerol, 200 mM NaCl, pH 7.7 (methods; the legend says 7.9), 45°C; apparent Kd from eqn (1)
[4] = target: ΔN159ChlH, N-terminally truncated ChlH subunit of Thermosynechococcus elongatus (Thermosynechococcus elongatus); experiment: as above

| Kd (ΔN159ChlH) [nM] | Kapp from steady-state magnesium chelatase rates against [Gun4] (0.1 μM ChlD, 0.2 μM ChlI, 0.4 μM ChlH, 45°C, eqn (2), nd held at 0.4) [1] [µM] | Kapp from steady-state magnesium chelatase rates against [Gun4] (0.1 μM ChlD, 0.2 μM ChlI, 0.4 μM ΔN159ChlH, 45°C, eqn (2), nd held at 0.4) [2] [µM] | Kd [3] [nM] | Kd [4] [nM] | Compound | continuous fluorescence assay of MgDIX formation at 580 nm (MgCH (WT ChlH–I–D)) |
| --- | --- | --- | --- | --- | --- | --- |
| 1060 ± 90 | – | – | – | – | CC1=C(CCC(=O)O)c2cc3nc(cc4[nH]c(cc4C)cc4[nH]c(cc1n2)cc4C)C(C)=C3CCC(=O)O [DIX] | assayed for in vitro MgCH activity by continuously monitoring fluorescence from the MgDIX product |
| – | 0.39 | 0.05 | 9 | 16 | Gun4 protein of Thermosynechococcus elongatus (natural protein) | – |
